“And” between values parts separate entries of the source, which are not always exact repeats. Identical values can stand only once. Like-named read-outs stand apart in the source and are kept apart here.
Experiments:
[1] = cited from earlier work; for Protein in oligomeric state: ref [30]
From the text: It has been shown, for example, that up ...

peptide substrates = test system: peptide substrates; parameters: method as in PMID 10876246; details: two different peptide substrates; ref [3]; cited from earlier work
[2] = Analytical SEC relative populations of oligomeric forms; assay type: physicochemical, human; details: Superdex 75, 4 °C; for Dimer population / Monomer population / Total oligomer population: 50 mM Tris pH 7.4, 150 mM KCl
Protocol: Analytical SEC was performed at 4 °C using a Superdex 75 10/300 GL column (GE Healthcare LifeSciences, Little Chalfont, U.K.), which had previously been calibrated using a mixture of standard proteins (Gel Filtration LMW Calibration Kit; GE Healthcare LifeSciences, Little Chalfont, U.K.). Typically, samples of the various constructs contained 70 µM of protein in 50 mM Tris buffer at pH 7.4, with 150 mM KCl, 5 mM MgCl2 and were incubated for 15 min (unless otherwise specified) at room temperature before being loaded onto the column for analysis. To evaluate the reversibility of the oligomerization process, the different elution peaks obtained for each protein variant were subsequently analyzed after concentrating the different fractions using AmiconUltra-0.5, Ultracel-3 Membrane, 3 kDa (Millipore, Bedford, MA, USA). A similar analysis was also performed at 6 µM concentration for all the protein variants to allow for a direct comparison between the results obtained by SEC and MS experiments.
The influence of substrate binding on the oligomerization properties of all the variants was examined by using the well-characterized Hsp70 substrate, the NR peptide (NRLLLTG, Genemed Synthesis Inc., San Antonio, TX, USA). A 14-fold excess of the peptide was added in each case to a fresh protein sample, incubated for 1 h at room temperature, unless otherwise specified, and then loaded onto the Superdex 75 10/300 GL column for analysis. The relative quantities of the different protein species were estimated by analysing the chromatographic profile using a Gaussian function for each elution peak (OriginPro 8, Originlab, Northampton, MA, USA) and measuring the relative area under each peak.

[3] = nESI-MS relative populations of oligomeric forms; assay type: physicochemical, human; details: 6-15 µM protein, 150 mM ammonium acetate, pH 7.4, estimated error 5% (SD of 3-4 independent experiments)
Protocol: Prior to MS analysis, samples were buffer exchanged into 150 mM ammonium acetate, pH 7.4, using Micro Bio-spin 6 columns (Bio-Rad, Digilab Division, Cambridge, MA, USA). For all the experiments protein concentrations ranging from 6 to 18 µM were used. In the case of the substrate binding experiments, proteins were analyzed in the presence of a 1: 1 molar ratio of the NR peptide; this substrate concentration, lower than in the SEC experiments, was chosen to ensure adequate resolution of the various charge state series, which is critical for unambiguous assignment of substrate-bound states. Due to suppression effects during nESI ionization, a relatively limited set of molar ratios could be investigated by in this way.
nESI-MS spectra were obtained according to a previously published protocol on an orthogonal time-of-flight mass spectrometer with a Z-spray source (LCT, Waters, Manchester, UK) in positive ion mode using the following parameters: capillary voltage, 1500 V; sample cone voltage, 120 V (unless otherwise specified); extraction cone voltage, 1V; and ion transfer stage pressure, 8.8 mbar. Spectra were calibrated externally using a 33 mg/ml solution of cesium iodide. Data were acquired and processed with MassLynx software (Waters, Manchester, UK), and are shown with minimal smoothing and without background subtraction. The relative abundances of the different oligomeric states were estimated from the intensities of the most abundant charge states for each construct and are expressed as a percentage of the total intensity.

[4] = Secondary structure content from far-UV CD; assay type: physicochemical, human; details: K2D software; 20 µM protein, 7 mM Tris pH 7.4, 170 mM KCl, 5 mM MgCl2; 25 °C
Protocol: Far-UV CD spectra for all protein variants were recorded using a Jasco J-810 spectropolarimeter equipped with a Peltier holder, using a 0.1 cm path length cuvette. Typically, samples contained 20 µM protein in 7 mM Tris buffer at pH 7.4, containing 170 mM KCl and 5 mM MgCl2. The far-UV CD spectra of all the variants in their native, thermally denatured and refolded states were recorded from 198 to 250 nm, and the spectrum of the buffer was systematically subtracted from the spectra of all protein samples. The secondary structure content was estimated from the far-UV CD spectrum for each protein variant using K2D software.

[5] = Thermal denaturation monitored by far-UV CD; assay type: physicochemical, human
Protocol: Protein structural stability was analyzed by monitoring the CD signal at 222 nm upon thermal denaturation. Thermal runs were performed from 5 to 90 °C at a rate of 1 °C. min^-1. Data points were acquired every 0.1 °C with a response time of 2 s and a bandwidth of […]. After thermal denaturation, each protein sample was cooled to the starting temperature, and a second denaturation curve recorded in order to analyse the degree of reversibility of the denaturation process. Analysis of the thermal unfolding curves was performed assuming a three-state unfolding model.

∆LSBD641 = assay: Fluorescence competition assay of dansylated and non-dansylated NR peptide; assay type: binding, human
Protocol: Fluorescence competition assay. Samples containing 50 μM ∆LSBD641 and 2 μM dansylated-NR peptide (D-NR) in Tris 50 mM, pH 7.4, 150 mM KCl, 5 mM MgCl2 were incubated in the presence of different concentrations of non-dansylated NR peptide (ND-NR; 0, 50 and 200 μM) for 1h at room temperature and the dansyl fluorescence emission spectrum of each sample was recorded from 400 to 630 nm after excitation at 330 nm. The intensity at the maximum emission wavelength of three different samples for which ten spectra were recorded was averaged, and the fraction of bound D-NR peptide was then determined experimentally from the reduction in the fluorescence signal in relation to the reference sample without ND-NR peptide for which the fraction of bound D-NR peptide is known (83% of the D-NR peptide is bound in this conditions according to the affinity measured by fluorescence titration; see Figure […]
The fraction of bound D-NR peptide was theoretically calculated for each sample according to a competitive model where the two ligands bind to the same substrate-binding pocket in the chaperone and assuming different values for the affinity of the ND-NR peptide for ∆LSBD641 […]
fluorescence titration was 8 ± 2 μM).
From the mass balance of the total protein concentration (PT) in a two-ligands competitive model and substituting the concentration of each complex (PL1 and PL2, corresponding to the complex with D-NR and ND-NR peptide, respectively) by the expression obtained from the definition of the different dissociation constants, a third-order polynomial expression (A·P3 + B·P2 + C·P + D = 0) of the free concentration of protein (P) is obtained, where the coefficients of the different terms are:
(also on this page, place not known: dansylated - m M excitati on -NR sig nal ND -NR D -NR D -NR D -NR substrate -binding ND -NR K d D -NR ( PT) two -ligands substitut ing ( PL1 D -NR ND -NR third -order (A· P3 D ( P) Tdd TdTddTdTddTTTdd PKKD PKPkKLKLKKCPLLKKBA 21 211221212121 ;;;1 −= −−++=−+++==) […]
(1 picture or pasted object on this page, not shown here)

[6] = 70 µM protein, 5 mM MgCl2, 15 min at room temperature, estimated error 3.5% (SD of 3-4 independent experiments)
[7] = 6-15 µM protein, 5 mM MgCl2, estimated error 3.5% (SD of 3-4 independent experiments)

Row | Substance | Dimer population [2, 6] [%] | Monomer population [2, 6] [%] | Dimer population [2, 7] [%] | Monomer population [2, 7] [%] | Total oligomer population [2, 7] [%] | Monomer population [3] [%] | Trimer population [3] [%] | Random-coil content estimated from far-UV CD [4] [%] | α-helix content estimated from far-UV CD [4] [%] | β-sheet content estimated from far-UV CD [4] [%] | further results
1 | BiP/Grp78: endoplasmic reticulum resident Hsp70 chaperone | – | – | – | – | – | – | – | – | – | – | Molecules existing as oligomers ([1]; in mammalian cells, ref [29]): 40-50%; Molecules existing as oligomers ([1]; in vitro, ca. 5 µM protein, ref [28]): 40-50%
2 | DnaK 2-538: DnaK mutant protein lacking the C-terminal 100 residues, i.e. helices C-E and part of helix B | – | – | – | – | – | – | – | – | – | – | Association rate constants vs wild type DnaK (peptide substrates): unaffected; Dissociation rate constants vs wild type DnaK (peptide substrates): considerable increase
3 | DnaK: bacterial Hsp70 homologue | – | – | – | – | – | – | – | – | – | – | Protein in oligomeric state ([1]; 0.5 mg/ml (ca. 7 µM)): approximately 20%; Protein in oligomeric state ([1]; 16 mg/ml (ca. 230 µM)): 70%
4 | FL-Hsp70: full-length human Hsp70 1A, GenBank ID NP005336, recombinant N-hexa-His-tagged | 7 | 93 | 1 | 99 | 1 | 98 | 0 | 32 | 45 | 23 | Oligomeric species ([2]; 220 µM protein, 50 mM Tris pH 7.4): 35%; Total oligomer population [3]: 2%
5 | SBD556: truncated human Hsp70 (384-556), lacks helices C, D and E and C-terminal disordered region; L542Y mutation | 7 | 93 | 3 | 97 | 3 | 82 | 2 | 54 | 21 | 25 | Total oligomer population [2, 6]: 7%; ∆Hm, 1st transition ([5]; CD 222 nm, 20 µM protein, 7 mM Tris pH 7.4, 170 mM KCl, 5 mM MgCl2, three-state fit (C-term two-state), SE of fit): 63.9 ± 1.9 kcal/mol; ∆Hm, 2nd transition ([5]; CD 222 nm, 20 µM protein, 7 mM Tris pH 7.4, 170 mM KCl, 5 mM MgCl2, three-state fit, SE of fit): 85.4 ± 2.6 kcal/mol; Tm, 1st transition ([5]; CD 222 nm, 5 to 90 °C at 1 °C/min, 20 µM protein, 7 mM Tris pH 7.4, 170 mM KCl, 5 mM MgCl2, three-state fit (C-term two-state), SE of fit): 46.8 ± 0.1 °C; Tm, 2nd transition ([5]; CD 222 nm, 5 to 90 °C at 1 °C/min, 20 µM protein, 7 mM Tris pH 7.4, 170 mM KCl, 5 mM MgCl2, three-state fit, SE of fit): 64.5 ± 0.1 °C and 64.5 ± 0.2 °C; Reversibility of thermal unfolding ([5]; far-UV CD, second denaturation curve after cooling): fully reversible; Dimer population [3]: 16%
6 | dansylated NR peptide: NR peptide N-terminally labeled with dansyl fluorophore | – | – | – | – | – | – | – | – | – | – | Fraction of bound dansylated NR peptide, ∆LSBD641:ND-NR 1:1, experimentally determined (∆LSBD641; 50 μM ∆LSBD641, 2 μM D-NR, 50 μM ND-NR, Tris 50 mM pH 7.4, 150 mM KCl, 5 mM MgCl2, 1 h room temperature, average of three samples): 0.62 ± 0.1; Fraction of bound dansylated NR peptide, ∆LSBD641:ND-NR 1:4, experimentally determined (∆LSBD641; 50 μM ∆LSBD641, 2 μM D-NR, 200 μM ND-NR, Tris 50 mM pH 7.4, 150 mM KCl, 5 mM MgCl2, 1 h room temperature, average of three samples): 0.35 ± 0.1; D-NR peptide bound (∆LSBD641; 50 μM ∆LSBD641, 2 μM D-NR, no ND-NR, according to affinity from fluorescence titration): 83%; Affinity of dansylated vs non-dansylated NR peptide (∆LSBD641; fluorescence competition assay): essentially the same affinity
